The values below come from article PMC6029887 (Cell reports, 2018).

Data set [1] addresses Cadherin-11 L20Y Q97H (YH) specificity mutant, adhesive fragment (mouse) (mouse). The data set is described as follows: AUC.
For data set [2], the target named is Cadherin-6 M3V Y20L H97Q E89P (VLQP) specificity mutant, adhesive fragment (mouse) (mouse). In words: AUC.
In data set [3] the target is Cadherin-11 V3M L20Y Q97H P89E (MYHE) specificity mutant, adhesive fragment (mouse) (mouse). In words: AUC.
Data set [4] deals with chimera cad-11EC16EC2 (cadherin-11 EC1 joined to cadherin-6 EC2) (mouse) (UniProt P97326). The data set is described as follows: AUC.
Data set [5] deals with cadherin-18 EC1-EC2 adhesive fragment (mouse), wild-type (mouse). In words: AUC.
Data set [6] deals with chimera cad-6EC111EC2 (cadherin-6 EC1 joined to cadherin-11 EC2) (mouse). In words: AUC.
The target of data set [7] is Cadherin-6 Y20L H97Q (LQ) specificity mutant, adhesive fragment (mouse) (mouse). The data set is described as follows: AUC.
The data set “AUC” deals with the molecule itself. In words: AUC.
In data set [8] the target is T1, Cys-tagged cadherin-6 adhesive fragment (mouse) (mouse, UniProt P97326 54-260).
T1 sequence: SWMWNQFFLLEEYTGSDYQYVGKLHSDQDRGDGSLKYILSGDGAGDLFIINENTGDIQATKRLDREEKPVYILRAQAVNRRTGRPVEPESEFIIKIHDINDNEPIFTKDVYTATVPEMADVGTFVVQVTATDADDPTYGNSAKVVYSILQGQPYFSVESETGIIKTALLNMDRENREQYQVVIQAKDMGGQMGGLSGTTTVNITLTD
The data set is described as follows: SPR. (SPR reads the build-up and loss of mass on a sensor chip optically.)

In data set [9] the target is T2, Cys-tagged cadherin-10 adhesive fragment (mouse) (mouse, UniProt P70408 55-261).
T2 sequence: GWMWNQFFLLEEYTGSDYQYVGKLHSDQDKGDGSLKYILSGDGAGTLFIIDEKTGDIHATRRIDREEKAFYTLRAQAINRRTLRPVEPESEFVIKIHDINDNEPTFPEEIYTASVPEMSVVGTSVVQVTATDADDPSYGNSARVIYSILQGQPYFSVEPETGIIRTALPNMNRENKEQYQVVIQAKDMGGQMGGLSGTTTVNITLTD
In words: SPR.

The target of data set [10] is T3, Cys-tagged cadherin-7 adhesive fragment (mouse) (mouse, UniProt Q8BM92 48-254).
T3 sequence: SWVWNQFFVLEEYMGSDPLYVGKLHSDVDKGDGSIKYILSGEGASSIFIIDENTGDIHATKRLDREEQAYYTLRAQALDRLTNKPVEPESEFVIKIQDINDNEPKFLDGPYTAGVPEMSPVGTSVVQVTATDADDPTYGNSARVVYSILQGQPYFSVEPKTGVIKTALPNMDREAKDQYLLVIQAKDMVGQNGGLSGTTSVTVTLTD
The data set is described as follows: SPR.

In the case of “Cadherin-11 L20Y Q97H (YH) specificity mutant, adhesive fragment (mouse) (domain or fragment)”, in data set [1], the Kd (in general, the concentration at which binding is half-saturated) was 11.1 µM. In data set [2], “Cadherin-6 M3V Y20L H97Q E89P (VLQP) specificity mutant, adhesive fragment (mouse) (domain or fragment)” had a Kd of 6.73 µM. As for “Cadherin-11 V3M L20Y Q97H P89E (MYHE) specificity mutant, adhesive fragment (mouse) (domain or fragment)”, in data set [3], the Kd stood at 8.2 µM. “chimera cad-11EC16EC2 (cadherin-11 EC1 joined to cadherin-6 EC2) (from UniProt P97326 151-260) (domain or fragment)” came in with a Kd in data set [4] of 15.6 µM. Take “cadherin-18 EC1-EC2 adhesive fragment (mouse), wild-type (domain or fragment)”: the Kd in [5] turned out to be 16.8 µM. Regarding “chimera cad-6EC111EC2 (cadherin-6 EC1 joined to cadherin-11 EC2) (domain or fragment)”, the Kd in [6] was 5.6 µM.

For the molecule “Cadherin-6 Y20L H97Q (LQ) specificity mutant, adhesive fragment (mouse) (domain or fragment)”, the Kd in data set [7] amounted to 9.63 µM.

B1: cadherin-7 EC1-EC2 adhesive fragment (mouse), wild-type (domain or fragment)
chain: SWVWNQFFVLEEYMGSDPLYVGKLHSDVDKGDGSIKYILSGEGASSIFIIDENTGDIHATKRLDREEQAYYTLRAQALDRLTNKPVEPESEFVIKIQDINDNEPKFLDGPYTAGVPEMSPVGTSVVQVTATDADDPTYGNSARVVYSILQGQPYFSVEPKTGVIKTALPNMDREAKDQYLLVIQAKDMVGQNGGLSGTTSVTVTLTD
Regarding B1, the Kd in “AUC” amounted to 32.2 µM. Besides, the binding result in data set [8] and in data set [9] was “binds” throughout.

B2: cadherin-6 EC1-EC2 adhesive fragment (mouse), wild-type (domain or fragment)
chain: SWMWNQFFLLEEYTGSDYQYVGKLHSDQDRGDGSLKYILSGDGAGDLFIINENTGDIQATKRLDREEKPVYILRAQAVNRRTGRPVEPESEFIIKIHDINDNEPIFTKDVYTATVPEMADVGTFVVQVTATDADDPTYGNSAKVVYSILQGQPYFSVESETGIIKTALLNMDRENREQYQVVIQAKDMGGQMGGLSGTTTVNITLTD
The molecule B2 had a Kd in the data set “AUC” of 3.1 µM. Besides, the binding result in [10] and in data set [9] was “binds” in each case.

B3: cadherin-8 EC1-EC3 fragment (mouse), wild-type (domain or fragment)
chain: GWVWNQMFVLEEFSGPEPILVGRLHTDLDPGSKKIKYILSGDGAGTIFQINDITGDIHAIKRLDREEKAEYTLTAQAVDFETNKPLEPPSEFIIKVQDINDNAPEFLNGPYHATVPEMSILGTSVTNVTATDADDPVYGNSAKLVYSILEGQPYFSIEPETAIIKTALPNMDREAKEEYLVVIQAKDMGGHSGGLSGTTTLTVTLTDVNDNPPKFAQSLYHFSVPEDVVLGTAIGRVKANDQDIGENAQSSYDIIDGDGTALFEITSDAQAQDGVIRLRKPLDFETKKSYTLKVEAANIHIDPRFSSRGPFKDTATVKIVVEDADEPPVF
The molecule B3 returned a Kd in “AUC” of 15 µM.

B4: cadherin-10 EC1-EC2 adhesive fragment (mouse), wild-type (domain or fragment)
chain: GWMWNQFFLLEEYTGSDYQYVGKLHSDQDKGDGSLKYILSGDGAGTLFIIDEKTGDIHATRRIDREEKAFYTLRAQAINRRTLRPVEPESEFVIKIHDINDNEPTFPEEIYTASVPEMSVVGTSVVQVTATDADDPSYGNSARVIYSILQGQPYFSVEPETGIIRTALPNMNRENKEQYQVVIQAKDMGGQMGGLSGTTTVNITLTD
In “AUC”, B4 had a Kd of 42.2 µM. The binding result in [8] and in data set [10] was “binds” each time.

B5: cadherin-9 EC1-EC2 adhesive fragment (mouse), wild-type (domain or fragment)
chain: GWMWNQFFLLEEYTGTDTQYVGKLHTDQDKGDGNLKYILTGDGAGNLFVIDENTGDIHAAKRLDREEKSLYILRAKAIDRKTGRQVEPESEFIIKIHDINDNEPKFTKDLYTASVPEMSGVGTSVIQVTATDADDANYGNSAKVVYSILQGQPYFSVDPESGIIKTALPDMSRENKEQYQVVIQAKDMGGQMGGLSGTTTVNITLTDVNNNPPRF
In “AUC”, B5 registered a Kd of 17 µM.

B6: cadherin-12 EC1-EC2 adhesive fragment (mouse), wild-type (domain or fragment)
chain: GWVWNQFFVLEEYMGSEPQYVGKLHSDLDKGEGTVKYTLSGDGAGTVFTIDETTGDIHAIRSLDREEKPFYTLRAQAVDIETRKPLEPESEFIIKVQDINDNEPKFLDGPYVASVPEMSPVGAYVLQVKATDADDPTYGNSARVVYSILQGQPYFSIDPKTGVIRTALPNMDREVKEQYQVLIQAKDMGGQLGGLAGTTVVNITLTDVNDNPPRF
Regarding B6, the Kd in “AUC” amounted to 8.3 µM.

B7: cadherin-24 EC1-EC3 fragment (mouse), wild-type (domain or fragment)
chain: SWVWNQFFVIEEYSGPEPVLIGKLHSDVDRGEGRTKYLLTGEGAGTVFVIDEATGNIHVTKSLDREEKAQYVLLAQAVDRASNRPLEPPSEFIIKVQDINDNPPVFPLGPYHATVPEMSNVGTSVIQVTAHDADDPSYGNSAKLVYTVLDGLPFFSVDPQTGVVRTAIPNMDRETQEEFLVVIQAKDMGGHMGGLSGSTTVTVTLSDVNDNPPKFPQSLYQFSVVETAGPGTLVGRLKAQDPDLGDNALVAYSILNGEGSEVFSISTDSQGQDGLLTVRKPLDFETRRSYTFRVEATNTLIDPAYLRRGPFKDVASVRVTVQDAPEPPAF
B7 displayed a Kd in the data set “AUC” of 8.2 µM.

B8: cadherin-11 EC1-EC2 adhesive fragment (mouse), wild-type (domain or fragment)
chain: GWVWNQFFVIEEYTGPDPVLVGRLHSDIDSGDGNIKYILSGEGAGTIFVIDDKSGNIHATKTLDREERAQYTLMAQAVDRDTNRPLEPPSEFIVKVQDINDNPPEFLHEIYHANVPERSNVGTSVIQVTASDADDPTYGNSAKLVYSILEGQPYFSVEAQTGIIRTALPNMDREAKEEYHVVIQAKDMGGHMGGLSGTTKVTITLTDVNDNPPKF
As for B8, in “AUC”, the Kd turned out to be 33.8 µM.

B9: cadherin-22 EC1-EC2 adhesive fragment (mouse), wild-type (domain or fragment)
chain: GWVWNQFFVVEEYTGTEPLYVGKIHSDSDEGDGTIKYTISGEGAGTIFLIDELTGDIHATERLDREQKTFYTLRAQARDRATNRLLEPESEFIIKVQDINDSEPRFLHGPYIGSVAELSPTGTSVMQVMASDADDPTYGSSARLVYSVLDGEHHFTVDPKTGVIRTAVPDLDRESQERYEVVIQATDMAGQLGGLSGSTTVTIVVTD
B9 yielded a Kd in “AUC” of 3.9 µM.

B10: cadherin-20 EC1-EC2 adhesive fragment (mouse), wild-type (domain or fragment)
chain: SWVWNQFFVLEEYTGTDPLYVGKLHSDMDRGDGSIKYILSGEGAGIVFTIDDTTGDIHAIQRLDREERAQYTLRAQALDRRTGRPMEPESEFIIKIQDINDNEPKFLDGPYIATVPEMSPVGTSVIQVTATDADDPTYGNSARVVYSILQGQPYFSVDSKTGVIRTALMNMDREAKEYYEVIIQAKDMGGQLGGLAGTTTVNITLSDVNDNPPRF
Consider B10, for which the Kd in the data set “AUC” was found to be 9.3 µM.
